Data as given in the supplement of paper PMC9112550, “Optimization of the antimicrobial peptide Bac7 by deep mutational scanning” (BMC Biology, 2022).

Test system: Escherichia coli TOP10
Assay: shrunken log2 fold change of peptide-encoding DNA abundance (4.5 h post-induction vs induction); higher = less antimicrobial activity (less host growth inhibition)
Details: time post-induction: 4.5 h; library: site-saturation at positions 5, 18, 19, 20
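Further: peptides expressed intracellularly from a pBAD plasmid library in pooled LB shake-flask culture, induced with 0.3% L-arabinose, DNA abundance read by NGS, three biological replicates, DESeq2 with apeglm shrinkage.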

Row | Sequence | shrunken log2 fold change
1 | RRIRMRPPRLPRPRPRPGSTPRP | 0.292
2 | RRIRRRPPRLPRPRPRPNRNPRP | 0.0469
3 | RRIRQRPPRLPRPRPRPEVEPRP | 0.0391
4 | RRIRFRPPRLPRPRPRPPQQPRP | -0.0751
5 | RRIRRRPPRLPRPRPRPLGMPRP | 0.471
6 | RRIRERPPRLPRPRPRPGGFPRP | 0.292
7 | RRIRRRPPRLPRPRPRPMRYPRP | 0.236
8 | RRIRHRPPRLPRPRPRPFKQPRP | -0.0287
9 | RRIRWRPPRLPRPRPRPWRTPRP | 0.0595
10 | RRIRVRPPRLPRPRPRPPWVPRP | 0.297
11 | RRIRLRPPRLPRPRPRPPFTPRP | 0.11
12 | RRIRSRPPRLPRPRPRPSRLPRP | -0.0299
13 | RRIRQRPPRLPRPRPRPQIEPRP | -0.0133
14 | RRIRGRPPRLPRPRPRPAGFPRP | 0.775
15 | RRIRWRPPRLPRPRPRPFGMPRP | -0.283
16 | RRIRDRPPRLPRPRPRPNVLPRP | -0.45
17 | RRIRDRPPRLPRPRPRPCFYPRP | -0.167
18 | RRIRERPPRLPRPRPRPMRQPRP | 0.575
19 | RRIRGRPPRLPRPRPRPKPCPRP | 0.422
20 | RRIRYRPPRLPRPRPRPACPPRP | -0.0352
21 | RRIRERPPRLPRPRPRPAMWPRP | 0.293
22 | RRIRCRPPRLPRPRPRPILFPRP | -0.405
23 | RRIRQRPPRLPRPRPRPFLNPRP | -0.118
24 | RRIRKRPPRLPRPRPRPGYSPRP | -0.447
25 | RRIRRRPPRLPRPRPRPKWHPRP | 0.593

Row | Sequence | shrunken log2 fold change
26 | RRIRKRPPRLPRPRPRPFVKPRP | -0.00571
27 | RRIRYRPPRLPRPRPRPPPMPRP | 0.46
28 | RRIRFRPPRLPRPRPRPFWEPRP | -0.193
29 | RRIRARPPRLPRPRPRPTTGPRP | 0.331
30 | RRIRCRPPRLPRPRPRPFWPPRP | 0.161
31 | RRIRLRPPRLPRPRPRPALFPRP | 0.488
32 | RRIRQRPPRLPRPRPRPFKHPRP | -0.244
33 | RRIRHRPPRLPRPRPRPKWCPRP | -0.142
34 | RRIRVRPPRLPRPRPRPRWIPRP | -0.0863
35 | RRIRTRPPRLPRPRPRPWSVPRP | -0.199
36 | RRIRRRPPRLPRPRPRPSFWPRP | 0.38
37 | RRIRSRPPRLPRPRPRPQSAPRP | 0.108
38 | RRIRFRPPRLPRPRPRPNVWPRP | 0.0725
39 | RRIRRRPPRLPRPRPRPDGYPRP | -0.0109
40 | RRIRERPPRLPRPRPRPYYVPRP | -0.559
41 | RRIRCRPPRLPRPRPRPTFSPRP | -0.187
42 | RRIRNRPPRLPRPRPRPDAVPRP | 0.0764
43 | RRIRVRPPRLPRPRPRPSFTPRP | -0.301
44 | RRIRKRPPRLPRPRPRPTVVPRP | 1
45 | RRIRIRPPRLPRPRPRPSHIPRP | -0.879
46 | RRIRTRPPRLPRPRPRPVAMPRP | -0.0639
47 | RRIRCRPPRLPRPRPRPAPRPRP | 0.915
48 | RRIRDRPPRLPRPRPRPANKPRP | -0.261
49 | RRIRTRPPRLPRPRPRPIPKPRP | 0.103
50 | RRIRQRPPRLPRPRPRPQKFPRP | -0.283

Row | Sequence | shrunken log2 fold change
51 | RRIRTRPPRLPRPRPRPVHRPRP | -0.0993
52 | RRIRARPPRLPRPRPRPFNTPRP | -0.189
53 | RRIRQRPPRLPRPRPRPHPFPRP | -0.29
54 | RRIRERPPRLPRPRPRPQNSPRP | -0.505
55 | RRIRGRPPRLPRPRPRPTFFPRP | 0.412
56 | RRIRGRPPRLPRPRPRPEPVPRP | 0.806
57 | RRIRCRPPRLPRPRPRPCWWPRP | 0.904
58 | RRIRERPPRLPRPRPRPQVIPRP | -0.125
59 | RRIRQRPPRLPRPRPRPTLEPRP | 0.0818
60 | RRIRDRPPRLPRPRPRPDCSPRP | 0.573
61 | RRIRIRPPRLPRPRPRPGIHPRP | -0.31
62 | RRIRVRPPRLPRPRPRPDVYPRP | -0.0411
63 | RRIRRRPPRLPRPRPRPTIMPRP | 0.0494
64 | RRIRARPPRLPRPRPRPEFTPRP | 0.475
65 | RRIRKRPPRLPRPRPRPVLNPRP | 0.0304
66 | RRIRCRPPRLPRPRPRPRCIPRP | -0.29
67 | RRIRNRPPRLPRPRPRPEHDPRP | 0.0627
68 | RRIRWRPPRLPRPRPRPLRDPRP | 0.655
69 | RRIRRRPPRLPRPRPRPPENPRP | 0.615
70 | RRIRRRPPRLPRPRPRPTYFPRP | 0.0897
71 | RRIRIRPPRLPRPRPRPFQPPRP | -0.407
72 | RRIRARPPRLPRPRPRPYFSPRP | -0.624
73 | RRIRHRPPRLPRPRPRPIVKPRP | -0.19
74 | RRIRARPPRLPRPRPRPMKSPRP | 0.186
75 | RRIRCRPPRLPRPRPRPIQWPRP | -0.263

Row | Sequence | shrunken log2 fold change
76 | RRIRLRPPRLPRPRPRPMVHPRP | 0.012
77 | RRIRIRPPRLPRPRPRPLRSPRP | 0.299
78 | RRIRWRPPRLPRPRPRPMRGPRP | 0.754
79 | RRIRSRPPRLPRPRPRPCPHPRP | -0.283
80 | RRIRQRPPRLPRPRPRPTLFPRP | 0.12
81 | RRIRPRPPRLPRPRPRPWSDPRP | -0.267
82 | RRIRYRPPRLPRPRPRPQMDPRP | -0.801
83 | RRIRLRPPRLPRPRPRPPVDPRP | 0.539
84 | RRIRWRPPRLPRPRPRPMAYPRP | -0.0846
85 | RRIRERPPRLPRPRPRPDPTPRP | -0.0306
86 | RRIRTRPPRLPRPRPRPMNLPRP | -0.348
87 | RRIRNRPPRLPRPRPRPRIDPRP | -0.0916
88 | RRIRERPPRLPRPRPRPKKFPRP | -0.524
89 | RRIRQRPPRLPRPRPRPVYQPRP | -0.022
90 | RRIRARPPRLPRPRPRPIFWPRP | 0.305
91 | RRIRLRPPRLPRPRPRPSILPRP | -0.57
92 | RRIRKRPPRLPRPRPRPEFDPRP | 2.46
93 | RRIRERPPRLPRPRPRPAAGPRP | 0.315
94 | RRIRLRPPRLPRPRPRPRRRPRP | 0.395
95 | RRIRYRPPRLPRPRPRPIALPRP | -0.0389
96 | RRIRGRPPRLPRPRPRPQADPRP | 0.43
97 | RRIRKRPPRLPRPRPRPNLMPRP | 3.86
98 | RRIRKRPPRLPRPRPRPRYDPRP | -0.0842
99 | RRIRVRPPRLPRPRPRPDFMPRP | -0.0875
100 | RRIRKRPPRLPRPRPRPWGIPRP | -0.168

Row | Sequence | shrunken log2 fold change
101 | RRIRARPPRLPRPRPRPPVCPRP | 0.276
102 | RRIRWRPPRLPRPRPRPLWAPRP | 0.417
103 | RRIRFRPPRLPRPRPRPRNAPRP | 0.347
104 | RRIRRRPPRLPRPRPRPHWRPRP | 0.0155
105 | RRIRTRPPRLPRPRPRPWNQPRP | -0.543
106 | RRIRCRPPRLPRPRPRPMHQPRP | -0.0626
107 | RRIRPRPPRLPRPRPRPLCCPRP | -0.105
108 | RRIRKRPPRLPRPRPRPDKYPRP | -0.309
109 | RRIRNRPPRLPRPRPRPTYHPRP | -0.526
110 | RRIRWRPPRLPRPRPRPFIWPRP | 0.205
111 | RRIRYRPPRLPRPRPRPQIKPRP | -0.969
112 | RRIRRRPPRLPRPRPRPHWEPRP | 0.127
113 | RRIRLRPPRLPRPRPRPSVRPRP | 0.0468
114 | RRIRLRPPRLPRPRPRPRAEPRP | 0.0944
115 | RRIRMRPPRLPRPRPRPLHAPRP | 1.29
116 | RRIRDRPPRLPRPRPRPYGNPRP | -0.117
117 | RRIRLRPPRLPRPRPRPKVAPRP | -0.0483
118 | RRIRLRPPRLPRPRPRPLEGPRP | 0.765
119 | RRIRFRPPRLPRPRPRPYVEPRP | -0.315
120 | RRIRKRPPRLPRPRPRPSESPRP | 0.0559
121 | RRIRMRPPRLPRPRPRPNGVPRP | 0.194
122 | RRIRQRPPRLPRPRPRPIPLPRP | -0.182
123 | RRIRHRPPRLPRPRPRPLFHPRP | -0.462
124 | RRIRLRPPRLPRPRPRPGMRPRP | 0.787
125 | RRIRGRPPRLPRPRPRPTAAPRP | 1.97

Row | Sequence | shrunken log2 fold change
126 | RRIRARPPRLPRPRPRPVKFPRP | -0.0699
127 | RRIRTRPPRLPRPRPRPYCWPRP | -0.109
128 | RRIRWRPPRLPRPRPRPSYFPRP | 1.15
129 | RRIRQRPPRLPRPRPRPFVLPRP | -0.277
130 | RRIRDRPPRLPRPRPRPKLWPRP | 0.527
131 | RRIRGRPPRLPRPRPRPGHWPRP | 0.387
132 | RRIRPRPPRLPRPRPRPHTQPRP | 0.0349
133 | RRIRERPPRLPRPRPRPVCHPRP | -0.309
134 | RRIRKRPPRLPRPRPRPNNAPRP | 0.243
135 | RRIRCRPPRLPRPRPRPHKDPRP | -0.636
136 | RRIRPRPPRLPRPRPRPGLRPRP | 3.24
137 | RRIRGRPPRLPRPRPRPDDSPRP | 0.121
138 | RRIRRRPPRLPRPRPRPLKAPRP | 0.785
139 | RRIRDRPPRLPRPRPRPTLQPRP | 0.981
140 | RRIRCRPPRLPRPRPRPCATPRP | 0.16
141 | RRIRPRPPRLPRPRPRPLTQPRP | 0.0664
142 | RRIRVRPPRLPRPRPRPNSCPRP | -0.394
143 | RRIRDRPPRLPRPRPRPSRTPRP | 0.208
144 | RRIRNRPPRLPRPRPRPSECPRP | -0.272
145 | RRIRHRPPRLPRPRPRPMAYPRP | -0.0524
146 | RRIRTRPPRLPRPRPRPKYDPRP | -0.434
147 | RRIRDRPPRLPRPRPRPYEKPRP | -0.191
148 | RRIRFRPPRLPRPRPRPCAPPRP | -0.121
149 | RRIRSRPPRLPRPRPRPFTHPRP | -0.0568
150 | RRIRVRPPRLPRPRPRPNFGPRP | -0.098
